From patent US20250188193A1

Tests used:
[1] = target: Rituximab G2 (galactosylated afucosylated glycoform); test: SPR, 1:1 Langmuir global fit, 1024 to 32 nM
[2] = target: Rituximab G2F (galactosylated fucosylated glycoform); test: SPR (Biacore T200), 1:1 Langmuir kinetic fit
[3] = target: Rituximab G2 (galactosylated afucosylated glycoform); test: SPR (Biacore T200), 1:1 Langmuir kinetic fit
[4] = target: Rituximab G2 (galactosylated afucosylated glycoform); test: SPR; drawn table, KD (G2)

Kd [1] [nM] | Kd [2] [nM] | Kd [3] [nM] | Kd [4] [nM] | Binder
353 | 1900 | 323 |  | D3 (VHH, not shown: small tags and cut ends) VHH: QVQLQESGGGLVQAGGSLRLSCAASGNISADRYMGWYRQAPGKEREFVAAIGYGGTTYYADSVKGRFTISRDNAKNTVYLQMNSLKPEDTAVYYCAVVDGAHSRHRYWGQGTQVTVSS
 |  |  | 4740 | E2 (VHH) VHH: QVQLQESGGGLVQAGGSLRLSCAASSYISRYHTMGWYRQAPGKERSFVAGITWGGLTYYADSVKGRFTVSRDNAKNTVYLQMNSLKPEDTAVYYCAVDGGTRADPYHYYWGQGTQVTVSS
 |  |  | 2480 | E4 (VHH) VHH: QVQLQESGGGLVQAGGSLRLSCAASPYISRYHTMGWYRQAPGKEREFVAAITWGGSTYYADSVKGRFTISRDNAKNTVYLQMNSLKPEDTAVYYCAVDGGTYADPYHYYWGQGTQVTVSS
